Substrate in the series: Cc1cn([C@H]2C[C@H](N=[N+]=[N-])[C@@H](COP(=O)(O)NCc3c[nH]c4ccccc34)O2)c(=O)[nH]c1=O
Kind of series: Hydrolysis activity of human HINT1 at pH 7.2 by continuous fluorescence assay.

B1: Adenosine 5'-monophosphoramidase HINT1 (Homo sapiens), P49773 (protein)
chain: MADEIAKAQVARPGGDTIFGKIIRKEIPAKIIFEDDRCLAFHDISPQAPTHFLVIPKKHISQISVAEDDDESLLGHLMIVGKKCAADLGLNKGYRMVVNEGSDGGQSVYHVHLHVLGGRQMHWPPG
The term Km denotes the concentration of substrate that gives half-maximal velocity. With B1, the Michaelis constant (Km) stood at 981 µM.

(Values after ChEMBL document CHEMBL1156111, “Identification of the amino acid-AZT-phosphoramidase by affinity T7 phage display selection” (Bioorg Med Chem Lett, 2009).)
